Two substances from paper PMC12605528, “A bifunctional peptide–selenium nanocomposite for lysosomal degradation of PD-L1 and enhanced cancer immunotherapy” (Frontiers in Immunology, 2025) can be followed below.

The Kd is the concentration at which binding is half-saturated. A higher Kd goes with weaker binding.

The target in assay [1] is T1, HSC70 (Homo sapiens, UniProt P11142). Put plainly: ITC; MicroCal iTC200, 25 °C, PBS pH 7.4; peptide at 500 μM in the syringe, PD-L1 or HSC70 at 2.5 μM in the sample chamber; 20 injections of 2 μL. In general terms: ITC needs no label: the signal is the heat of the interaction.
Target sequence in this assay (P11142 whole entry): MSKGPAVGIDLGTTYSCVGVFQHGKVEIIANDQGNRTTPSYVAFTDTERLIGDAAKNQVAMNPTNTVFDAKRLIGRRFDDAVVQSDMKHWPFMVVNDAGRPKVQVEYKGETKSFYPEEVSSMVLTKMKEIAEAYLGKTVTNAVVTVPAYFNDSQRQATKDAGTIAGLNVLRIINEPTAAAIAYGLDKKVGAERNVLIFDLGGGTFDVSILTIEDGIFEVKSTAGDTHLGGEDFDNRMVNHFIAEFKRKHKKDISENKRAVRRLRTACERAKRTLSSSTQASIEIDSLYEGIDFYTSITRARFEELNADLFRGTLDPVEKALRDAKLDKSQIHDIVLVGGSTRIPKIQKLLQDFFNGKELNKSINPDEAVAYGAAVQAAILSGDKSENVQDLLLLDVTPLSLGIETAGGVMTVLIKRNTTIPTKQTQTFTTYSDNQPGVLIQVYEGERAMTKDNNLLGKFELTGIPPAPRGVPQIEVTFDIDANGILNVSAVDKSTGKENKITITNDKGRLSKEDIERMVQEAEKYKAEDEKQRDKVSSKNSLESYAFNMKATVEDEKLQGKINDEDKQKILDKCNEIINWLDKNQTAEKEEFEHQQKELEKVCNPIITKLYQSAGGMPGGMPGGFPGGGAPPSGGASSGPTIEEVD
For assay [2], the target named is T2, PD-L1 (Homo sapiens, UniProt Q9NZQ7). The description is as above.
Target sequence in this assay (Q9NZQ7 19-290): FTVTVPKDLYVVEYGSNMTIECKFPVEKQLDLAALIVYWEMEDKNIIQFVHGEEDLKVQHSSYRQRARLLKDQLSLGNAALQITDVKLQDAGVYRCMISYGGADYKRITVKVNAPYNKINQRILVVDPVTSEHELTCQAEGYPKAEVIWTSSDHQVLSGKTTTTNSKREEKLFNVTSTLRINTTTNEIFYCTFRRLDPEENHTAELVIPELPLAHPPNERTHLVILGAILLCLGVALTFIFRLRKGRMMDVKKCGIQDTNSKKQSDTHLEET
Assay [3] deals with T1, HSC70. Put plainly: Isothermal titration calorimetry (ITC), binding to HSC70. Conditions: 25 °C, PBS pH 7.4, peptide 500 μM in syringe, protein 2.5 μM in cell, 20 injections of 2 μL. The procedure:
(§1) Experiments were conducted at 25 °C on a MicroCal iTC200 isothermal titration calorimeter (GE Healthcare) in PBS buffer (pH 7.4). The titration syringe was loaded with peptide a or scrambled peptide prepared at 500 μM, while the sample chamber contained PD-L1 or HSC70 protein at 2.5 μM. The titration consisted of 20 successive injections of 2 μL each, with an equilibration interval of 120 seconds between injections. The average baseline value was calculated from data points obtained under saturation conditions. Following baseline correction, binding constants were determined using the fitting models provided in MicroCal Origin software.
Target sequence in this assay (P11142 whole entry, species assumed): as the sequence (P11142 whole entry) above

In assay [4] the target is T2, PD-L1. Put plainly: Isothermal titration calorimetry (ITC), binding to PD-L1. The following applies: 25 °C, PBS pH 7.4, peptide 500 μM in syringe, protein 2.5 μM in cell, 20 injections of 2 μL. As for the experimental part: as §1
Target sequence in this assay (Q9NZQ7 19-290, species assumed): as the sequence (Q9NZQ7 19-290) above

On to “bifunctional peptide a (CKFERQ-PEG3-nyskptdrqyhf)”, for which the Kd was 1280 nM with HSC70 [1] and 410 nM with PD-L1 [2].
In the case of “fhyqrdtpksyn-PEG3-QREFKC [mutant peptide with scrambled sequences]”, the “Kd, binding to HSC70” value on HSC70 [3] is recorded as “no detectable binding”. On PD-L1 [4], the “Kd, binding to PD-L1” value was “no detectable binding”.
